Experimental data reported in publication PMC9352680, “A comprehensive thermodynamic model for RNA binding by the Saccharomyces cerevisiae Pumilio protein PUF4”.
Numbering of substitutions follows the chain as printed. In names and notes the source's numbering stands.

T1: PUF4 RNA-binding domain (Saccharomyces cerevisiae, UniProt P25339 537-888)
T1 sequence: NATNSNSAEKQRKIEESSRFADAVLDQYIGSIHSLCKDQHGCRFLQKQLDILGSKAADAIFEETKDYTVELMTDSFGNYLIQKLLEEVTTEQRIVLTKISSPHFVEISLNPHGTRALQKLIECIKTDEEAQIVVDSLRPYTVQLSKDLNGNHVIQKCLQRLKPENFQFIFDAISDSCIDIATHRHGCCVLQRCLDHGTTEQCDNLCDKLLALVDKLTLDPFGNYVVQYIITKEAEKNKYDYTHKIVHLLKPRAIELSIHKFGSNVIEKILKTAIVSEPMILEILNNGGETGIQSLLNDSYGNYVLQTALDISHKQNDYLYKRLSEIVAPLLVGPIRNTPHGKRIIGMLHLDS

B1: Ib_S4_P4E.1_K4.1_C4.1_H4.1_[A4G]_A4.1_F4.1_[T8C]_T4.1 (ssRNA)
RNA: UUUGACAACUGAUCGUUCUUUCUUGUGUAUCAUUCUUUCUCGAUCAGUUGUCUUU
B2: Ib_S4_P4E.1_K4.1_C4.1_H4.1_A4.1_[A6T]_F4.1_[T8C]_T4.1 (ssRNA)
RNA: B1 RNA with G27A, A29U
B3: Ib_S4_P4E.1_K4.1_C4.1_H4.1_[A4C]_A4.1_F4.1_[A9C]_T4.1 (ssRNA)
RNA: B1 RNA with G27C, C31U, A32C
B4: Ib_S4_P4E.1_K4.1_C4.1_H4.1_[T1G]_A4.1_F4.1_[A9G]_T4.1 (ssRNA)
RNA: B1 RNA with U24G, G27A, C31U, A32G
B5: Ib_S4_P4E.1_K4.1_C4.1_H4.1_[A4C]_A4.1_F4.1_[A9G]_T4.1 (ssRNA)
RNA: B1 RNA with G27C, C31U, A32G
B6: Ib_S4_P4E.1_K4.1_C4.1_H4.1_A4.1_[T7C]_F4.1_[T8A]_T4.1 (ssRNA)
RNA: B1 RNA with G27A, U30C, C31A
B7: Ib_S4_P4E.1_K4.1_C4.1_H4.1_A4.1_[A6C]_F4.1_[A9T]_T4.1 (ssRNA)
RNA: B1 RNA with G27A, A29C, C31U, A32U
B8: Ib_S4_P4E.1_K4.1_C4.1_H4.1_A4.1_[A6G]_F4.1_[A9C]_T4.1 (ssRNA)
RNA: B1 RNA with G27A, A29G, C31U, A32C
B9: Ib_S4_P4E.1_K4.1_C4.1_H4.1_[T1A]_[A4T]_A4.1_F4.1_T4.1 (ssRNA)
RNA: B1 RNA with U24A, G27U, C31U
B10: Ib_S4_P4E.1_K4.1_C4.1_H4.1_[T1A]_A4.1_F4.1_[A9G]_T4.1 (ssRNA)
RNA: B1 RNA with U24A, G27A, C31U, A32G
B11: Ib_S4_P4E.1_K4.1_C4.1_H4.1_[T1G]_[A4T]_A4.1_F4.1_T4.1 (ssRNA)
RNA: B1 RNA with U24G, G27U, C31U
B12: Ib_S4_P4E.1_K4.1_C4.1_H4.1_A4.1_[T5A]_F4.1_[T8A]_T4.1 (ssRNA)
RNA: B1 RNA with G27A, U28A, C31A
B13: Ib_S4_P4E.1_K4.1_C4.1_H4.1_[A4T]_A4.1_F4.1_[A9C]_T4.1 (ssRNA)
RNA: B1 RNA with G27U, C31U, A32C
B14: Ib_S4_P4E.1_K4.1_C4.1_H4.1_A4.1_[T7G]_F4.1_[T8C]_T4.1 (ssRNA)
RNA: B1 RNA with G27A, U30G
B15: Ib_S4_P4E.1_K4.1_C4.1_H4.1_[T1C]_A4.1_F4.1_[A9C]_T4.1 (ssRNA)
RNA: B1 RNA with U24C, G27A, C31U, A32C
B16: Ib_S4_P4E.1_K4.1_C4.1_H4.1_A4.1_[T7C]_F4.1_[A9C]_T4.1 (ssRNA)
RNA: B1 RNA with G27A, U30C, C31U, A32C
B17: Ib_S4_P4E.1_K4.1_C4.1_H4.1_[T1G]_[G2T]_A4.1_F4.1_T4.1 (ssRNA)
RNA: B1 RNA with U24G, G25U, G27A, C31U
B18: Ib_S4_P4E.1_K4.1_C4.1_H4.1_[A4C]_A4.1_F4.1_[A9T]_T4.1 (ssRNA)
RNA: B1 RNA with G27C, C31U, A32U
B19: Ib_S4_P4E.1_K4.1_C4.1_H4.1_A4.1_[T5C]_F4.1_[T8C]_T4.1 (ssRNA)
RNA: B1 RNA with G27A, U28C
B20: Ib_S4_P4E.1_K4.1_C4.1_H4.1_A4.1_[A6T]_F4.1_[A9G]_T4.1 (ssRNA)
RNA: B1 RNA with G27A, A29U, C31U, A32G
B21: Ib_S4_P4E.1_K4.1_C4.1_H4.1_[T1C]_[G2T]_A4.1_F4.1_T4.1 (ssRNA)
RNA: B1 RNA with U24C, G25U, G27A, C31U
B22: Ic_S4_P4E.1_K4.1_C4.1_H4.1_A4.1_[A6C]_F4.1_[A9G]_T4.1 (ssRNA)
RNA: B1 RNA with G27A, A29C, C31U, A32G
B23: Ib_S4_P4E.1_K4.1_C4.1_H4.1_[T1A]_[G2T]_A4.1_F4.1_T4.1 (ssRNA)
RNA: B1 RNA with U24A, G25U, G27A, C31U
B24: Ib_S4_P4E.1_K4.1_C4.1_H4.1_[T1C]_[G2A]_A4.1_F4.1_T4.1 (ssRNA)
RNA: B1 RNA with U24C, G25A, G27A, C31U
B25: Ic_S4_P4E.1_K4.1_C4.1_H4.1_A4.1_[T5C]_F4.1_[A9T]_T4.1 (ssRNA)
RNA: B1 RNA with G27A, U28C, C31U, A32U
B26: Ic_S4_P4E.1_K4.1_C4.1_H4.1_A4.1_[T7G]_F4.1_[A9G]_T4.1 (ssRNA)
RNA: B1 RNA with G27A, U30G, C31U, A32G
B27: Ib_S4_P4E.1_K4.1_C4.1_H4.1_[T3C]_A4.1_F4.1_[A9C]_T4.1 (ssRNA)
RNA: B1 RNA with U26C, G27A, C31U, A32C
B28: Ib_S4_P4E.1_K4.1_C4.1_H4.1_A4.1_[T5A]_F4.1_[A9G]_T4.1 (ssRNA)
RNA: B1 RNA with G27A, U28A, C31U, A32G
B29: Ib_S4_P4E.1_K4.1_C4.1_H4.1_[G2A]_A4.1_F4.1_[A9G]_T4.1 (ssRNA)
RNA: B1 RNA with G25A, G27A, C31U, A32G
B30: Ib_S4_P4E.1_K4.1_C4.1_H4.1_A4.1_[T7A]_F4.1_[T8C]_T4.1 (ssRNA)
RNA: B1 RNA with G27A, U30A
B31: Ib_S4_P4E.1_K4.1_C4.1_H4.1_[T1G]_[A4C]_A4.1_F4.1_T4.1 (ssRNA)
RNA: B1 RNA with U24G, G27C, C31U
B32: Ib_S4_P4E.1_K4.1_C4.1_H4.1_[G2C]_A4.1_F4.1_[A9C]_T4.1 (ssRNA)
RNA: B1 RNA with G25C, G27A, C31U, A32C
B33: Ib_S4_P4E.1_K4.1_C4.1_H4.1_A4.1_[A6T]_F4.1_[A9C]_T4.1 (ssRNA)
RNA: B1 RNA with G27A, A29U, C31U, A32C
B34: Ic_S4_P4E.1_K4.1_C4.1_H4.1_A4.1_[T7C]_F4.1_[A9T]_T4.1 (ssRNA)
RNA: B1 RNA with G27A, U30C, C31U, A32U
B35: Ib_S4_P4E.1_K4.1_C4.1_H4.1_[T1A]_[T3C]_A4.1_F4.1_T4.1 (ssRNA)
RNA: B1 RNA with U24A, U26C, G27A, C31U
B36: Ib_S4_P4E.1_K4.1_C4.1_H4.1_[A4G]_A4.1_F4.1_[T8A]_T4.1 (ssRNA)
RNA: B1 RNA with C31A
B37: Ib_S4_P4E.1_K4.1_C4.1_H4.1_[T1C]_[G2C]_A4.1_F4.1_T4.1 (ssRNA)
RNA: B1 RNA with U24C, G25C, G27A, C31U
B38: Ib_S4_P4E.1_K4.1_C4.1_H4.1_[T1C]_[A4T]_A4.1_F4.1_T4.1 (ssRNA)
RNA: B1 RNA with U24C, G27U, C31U
B39: Ib_S4_P4E.1_K4.1_C4.1_H4.1_[T1A]_[G2C]_A4.1_F4.1_T4.1 (ssRNA)
RNA: B1 RNA with U24A, G25C, G27A, C31U
B40: Ib_S4_P4E.1_K4.1_C4.1_H4.1_[A4G]_A4.1_F4.1_[A9C]_T4.1 (ssRNA)
RNA: B1 RNA with C31U, A32C
B41: Ib_S4_P4E.1_K4.1_C4.1_H4.1_[T3C]_A4.1_F4.1_[A9G]_T4.1 (ssRNA)
RNA: B1 RNA with U26C, G27A, C31U, A32G
B42: Ib_S4_P4E.1_K4.1_C4.1_H4.1_[A4C]_A4.1_F4.1_[T8A]_T4.1 (ssRNA)
RNA: B1 RNA with G27C, C31A
B43: Ib_S4_P4E.1_K4.1_C4.1_H4.1_[T1G]_[A4G]_A4.1_F4.1_T4.1 (ssRNA)
RNA: B1 RNA with U24G, C31U
B44: Ib_S4_P4E.1_K4.1_C4.1_H4.1_[T3C]_A4.1_F4.1_[A9T]_T4.1 (ssRNA)
RNA: B1 RNA with U26C, G27A, C31U, A32U
B45: Ib_S4_P4E.1_K4.1_C4.1_H4.1_A4.1_[A6C]_F4.1_[T8C]_T4.1 (ssRNA)
RNA: B1 RNA with G27A, A29C
B46: Ib_S4_P4E.1_K4.1_C4.1_H4.1_A4.1_[T7A]_F4.1_[T8A]_T4.1 (ssRNA)
RNA: B1 RNA with G27A, U30A, C31A
B47: Ib_S4_P4E.1_K4.1_C4.1_H4.1_A4.1_[A6G]_F4.1_[T8C]_T4.1 (ssRNA)
RNA: B1 RNA with G27A, A29G
B48: Ib_S4_P4E.1_K4.1_C4.1_H4.1_A4.1_[T5A]_F4.1_[T8C]_T4.1 (ssRNA)
RNA: B1 RNA with G27A, U28A
B49: Ia_S4_P3E.1_K3.1_C3.1_H3.1_[T1G]_A3.1_F3.1_T3.1 (ssRNA)
RNA: UUUGACAACUGAUCGUUCUUUCUGGUAUAUAUUCUUUCUCGAUCAGUUGUCUUU
B50: Ia_S4_P3E.1_K3.1_C3.1_H3.1_[A4T]_A3.1_F3.1_T3.1 (ssRNA)
RNA: B49 RNA with G24U, A27U
B51: Ia_S4_P3E.1_K3.1_C3.1_H3.1_[G2C]_A3.1_F3.1_T3.1 (ssRNA)
RNA: B49 RNA with G24U, G25C
B52: Ia_S4_P3E.1_K3.1_C3.1_H3.1_[T1A]_A3.1_F3.1_T3.1 (ssRNA)
RNA: B49 RNA with G24A
B53: Ic_S4_P3E.1_K3.1_C3.1_H3.1_A3.1_[T5C]_F3.1_T3.1 (ssRNA)
RNA: B49 RNA with G24U, U28C

What follows are binders tested against T1, PUF4 RNA-binding domain (assay: Mg; RNA-MaP; 20 mM Na-HEPES pH 7.4, 30 mM KOAc, 0.75 mM MgCl2, 0.1% Tween-20, 5% glycerol, 0.1 mg/mL BSA, 2 mM DTT; 25 C; 0.0125-409.6 nM protein). Conditions: tags: N-His6-TEV cleaved; C-SNAP kept, Cy3B-labelled; label: tethered on chip by stalled RNA polymerase.

Binder | Kd [nM]
B1 | 24.4
B2 | 84.2
B3 | 501
B4 | 1710
B5 | 252
B6 | 18.4
B7 | 10.8
B8 | 15.5
B9 | > 2300
B10 | 2230
B11 | 1600
B12 | 27.4
B13 | 406
B14 | 51.1
B15 | 1020
B16 | 10.1
B17 | 41.2
B18 | 268
B19 | 8.87
B20 | 8.2
B21 | 401
B22 | 11.3
B23 | 686
B24 | 168
B25 | 1.94
B26 | 13.5
B27 | > 2300

Binder | Kd [nM]
B28 | 19.7
B29 | 329
B30 | 19.6
B31 | > 2300
B32 | 1530
B33 | 17.8
B34 | 7
B35 | 1880
B36 | 6.19
B37 | 331
B38 | 615
B39 | 481
B40 | 12.1
B41 | > 2300
B42 | 458
B43 | 40.1
B44 | 1000
B45 | 22.1
B46 | 29.8
B47 | 136
B48 | 78.4
B49 | 1280
B50 | 86.8
B51 | 360
B52 | 819
B53 | 1.93
